# Measured values as given in PMC11281638.
# Target: Sso7d-IN (full-length HIV-1 integrase fused to Sso7d) (not stated | HIV-1)
# Assay: semi-quantitative SDS-PAGE (Coomassie) of the purified complex
Substance,stoichiometry N (CTD per full-length IN),stoichiometry N (IBD per full-length IN)
"IN-CTD (HIV-1 integrase residues 185-288), His-tagged (from UniProt P12497 186-289) (domain or fragment)",0.3,–
"LEDGF-IBD (lens epithelium-derived growth factor IN-binding domain, residues 307-460), His-tagged (from UniProt O75475 307-460) (domain or fragment)",–,1
